{
  "source": "patent US20090214565A1",
  "about": "(BAYLOR RESEARCH INSTITUTE, published 2009)",
  "binders": {"B1": {"name": "ACO-1 (antibody, V domains shown)", "VH": "QVQLQQPGAELVKPGASVKLSCKASGYTFTNYWMHWVKQRPGQGLEWIGEINPSHGRTIYNENFKSKATLTVDKSSITAFMQLSSLTSEDSAVYFCARGGLGPAWFAYWGQGTLVTVSA", "VL": "QIVLTQSPAIMSASPGEKVTLTCSAGSSVDSSYLYWYQQKPGSSPKLWIYSTSNLASGVPARFSGSGSGTSYSLTISSMEAEDAASYFCHQWSSYPFTFGSGTKLEIKR", "notes": "also called ACO-1 monoclonal antibody; hybridoma ATCC PTA-6557"}},
  "key": {"IFN-α K [1]": {"target": "T1, IFN-α K (human, UniProt P05013 24-189)", "T1 sequence (P05013 24-189)": "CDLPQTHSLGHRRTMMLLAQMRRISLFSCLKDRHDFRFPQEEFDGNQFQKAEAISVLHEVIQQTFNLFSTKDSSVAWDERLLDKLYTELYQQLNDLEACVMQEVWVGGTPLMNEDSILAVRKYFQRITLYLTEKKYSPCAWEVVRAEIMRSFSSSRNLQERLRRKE", "experiment": "cell-based or functional assay"}, "IFN-α J1 [2]": {"target": "T2, IFN-α J1 (human, UniProt P01567 24-189)", "T2 sequence (P01567 24-189 limits assumed)": "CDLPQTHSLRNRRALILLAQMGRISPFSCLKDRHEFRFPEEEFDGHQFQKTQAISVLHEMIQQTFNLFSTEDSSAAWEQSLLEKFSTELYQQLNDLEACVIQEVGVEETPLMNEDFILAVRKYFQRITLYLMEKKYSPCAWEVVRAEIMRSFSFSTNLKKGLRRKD", "experiment": "cell-based or functional assay"}, "IFN-α F [3]": {"target": "T3, IFN-α F (human, UniProt P01568 24-189)", "T3 sequence (P01568 24-189)": "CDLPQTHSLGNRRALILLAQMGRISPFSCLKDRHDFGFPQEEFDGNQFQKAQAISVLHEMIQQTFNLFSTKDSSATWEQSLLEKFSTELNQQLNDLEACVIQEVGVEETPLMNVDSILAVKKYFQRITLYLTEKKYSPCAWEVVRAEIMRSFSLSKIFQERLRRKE", "experiment": "cell-based or functional assay"}, "IFN-β": {"target": "IFN-β (human, UniProt P01574 22-187)", "sequence (P01574 22-187 limits assumed)": "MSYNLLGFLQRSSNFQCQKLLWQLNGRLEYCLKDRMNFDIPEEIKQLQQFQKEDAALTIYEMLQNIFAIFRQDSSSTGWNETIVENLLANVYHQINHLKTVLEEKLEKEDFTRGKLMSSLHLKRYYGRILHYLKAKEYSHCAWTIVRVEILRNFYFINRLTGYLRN", "experiment": "cell-based or functional assay"}, "IFN-α WA [4]": {"target": "T4, IFN-α WA (human, UniProt P05015 24-189)", "T4 sequence (P05015 24-189)": "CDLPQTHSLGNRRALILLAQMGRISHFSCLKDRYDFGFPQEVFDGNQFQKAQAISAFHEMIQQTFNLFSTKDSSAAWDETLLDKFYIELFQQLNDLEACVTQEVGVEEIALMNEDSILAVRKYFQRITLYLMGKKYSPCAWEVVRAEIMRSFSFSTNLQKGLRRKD", "experiment": "cell-based or functional assay"}, "IFN-α D [5]": {"target": "T5, IFN-α D (human, UniProt P0DY56 24-189)", "T5 sequence (P0DY56 entry or part of it limits assumed)": "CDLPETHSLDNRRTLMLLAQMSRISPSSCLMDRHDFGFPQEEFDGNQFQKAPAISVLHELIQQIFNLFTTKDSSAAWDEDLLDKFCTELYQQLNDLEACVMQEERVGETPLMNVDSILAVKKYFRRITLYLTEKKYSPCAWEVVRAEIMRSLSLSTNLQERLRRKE", "experiment": "cell-based or functional assay"}, "IFN-α I [6]": {"target": "T6, IFN-α I (human, UniProt P01571 24-189)", "T6 sequence (P01571 24-189)": "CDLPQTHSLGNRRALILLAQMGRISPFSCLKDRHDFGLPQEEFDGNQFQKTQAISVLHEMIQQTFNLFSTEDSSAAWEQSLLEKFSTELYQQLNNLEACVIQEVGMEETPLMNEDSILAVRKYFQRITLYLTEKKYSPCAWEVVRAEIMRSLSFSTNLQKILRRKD", "experiment": "cell-based or functional assay"}, "IFN-α G [7]": {"target": "T7, IFN-α G (human, UniProt P01569 24-189)", "T7 sequence (P01569 24-189)": "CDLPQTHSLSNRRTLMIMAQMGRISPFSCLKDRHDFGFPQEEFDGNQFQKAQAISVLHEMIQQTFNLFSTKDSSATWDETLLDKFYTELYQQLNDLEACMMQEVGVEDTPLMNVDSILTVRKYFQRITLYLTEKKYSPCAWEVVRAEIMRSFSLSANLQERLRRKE", "experiment": "cell-based or functional assay"}, "IFN-α4a [8]": {"target": "T8, IFN-α4a (human, UniProt P05014 24-189, limits assumed)", "T8 sequence (P05014 24-189 limits assumed)": "as the sequence (P01571 24-189) above, with P26H, L38F, Q40E, N46H, T51A, N95D, M106V, I161R counted along it", "experiment": "cell-based or functional assay"}, "IFN-α H2 [9]": {"target": "T9, IFN-α H2 (human, UniProt P01570 24-189)", "T9 sequence (P01570 24-189)": "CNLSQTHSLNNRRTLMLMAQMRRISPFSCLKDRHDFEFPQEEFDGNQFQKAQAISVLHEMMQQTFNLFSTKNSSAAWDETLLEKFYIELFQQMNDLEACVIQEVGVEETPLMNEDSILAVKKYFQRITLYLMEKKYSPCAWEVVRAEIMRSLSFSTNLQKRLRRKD", "experiment": "cell-based or functional assay"}, "IFN-α C [10]": {"target": "T10, IFN-α C (human, UniProt P01566 24-189)", "T10 sequence (P01566 24-189)": "as the sequence (P01571 24-189) above, with A19G, G37R, L38I, T51A, N95D, M106V, T132I, K134R, I161R counted along it", "experiment": "cell-based or functional assay"}, "IFN-α K [11]": {"target": "T1, IFN-α K", "experiment": "cell-based or functional assay", "remark": "listed apart in the source"}, "IFN-α J1 [12]": {"target": "T2, IFN-α J1", "experiment": "cell-based or functional assay", "remark": "listed apart in the source"}, "IFN-α F [13]": {"target": "T3, IFN-α F", "experiment": "cell-based or functional assay", "remark": "listed apart in the source"}, "IFN-α WA [14]": {"target": "T4, IFN-α WA", "experiment": "cell-based or functional assay", "remark": "listed apart in the source"}, "IFN-α I [15]": {"target": "T6, IFN-α I", "experiment": "cell-based or functional assay", "remark": "listed apart in the source"}, "IFN-α G [16]": {"target": "T7, IFN-α G", "experiment": "cell-based or functional assay", "remark": "listed apart in the source"}, "IFN-α4a [17]": {"target": "T8, IFN-α4a", "experiment": "cell-based or functional assay", "remark": "listed apart in the source"}, "IFN-α H2 [18]": {"target": "T9, IFN-α H2", "experiment": "cell-based or functional assay", "remark": "listed apart in the source"}, "IFN-α C [19]": {"target": "T10, IFN-α C", "experiment": "cell-based or functional assay", "remark": "listed apart in the source"}, "IFN-α K [20]": {"target": "T1, IFN-α K", "experiment": "cell-based or functional assay", "remark": "listed apart in the source"}, "IFN-α J1 [21]": {"target": "T2, IFN-α J1", "experiment": "cell-based or functional assay", "remark": "listed apart in the source"}, "IFN-α F [22]": {"target": "T3, IFN-α F", "experiment": "cell-based or functional assay", "remark": "listed apart in the source"}, "IFN-α WA [23]": {"target": "T4, IFN-α WA", "experiment": "cell-based or functional assay", "remark": "listed apart in the source"}, "IFN-α D [24]": {"target": "T5, IFN-α D", "experiment": "cell-based or functional assay", "remark": "listed apart in the source"}, "IFN-α I [25]": {"target": "T6, IFN-α I", "experiment": "cell-based or functional assay", "remark": "listed apart in the source"}, "IFN-α G [26]": {"target": "T7, IFN-α G", "experiment": "cell-based or functional assay", "remark": "listed apart in the source"}, "IFN-α4a [27]": {"target": "T8, IFN-α4a", "experiment": "cell-based or functional assay", "remark": "listed apart in the source"}, "IFN-α H2 [28]": {"target": "T9, IFN-α H2", "experiment": "cell-based or functional assay", "remark": "listed apart in the source"}, "IFN-α C [29]": {"target": "T10, IFN-α C", "experiment": "cell-based or functional assay", "remark": "listed apart in the source"}, "leukocyte IFN (Sigma)": {"target": "leukocyte IFN (Sigma)", "experiment": "cell-based or functional assay"}, "IFN-α D [30]": {"target": "T5, IFN-α D", "experiment": "ELISA, IFN subtype coated", "protocol": "Solid-phase binding of all 15 IFNα subtypes was evaluated for screening of MAb specificity by ELISA assay. Briefly, 50 μl/well of 1 μg/ml of a recombinant IFNα protein subtype were coated overnight at 4° C. on ELISA plates (NUNC MaxiSorp™) plates. Coated plates were blocked with PBS+1% BSA and incubated with 50 μl of 25 ng ACO candidate MAb in PBS for 1 hour at 37° C. The assays were developed by incubation with 50 μl/well of an HRP conjugated goat anti-mouse-IgG (Jackson ImmunoResearch) at room temperature for 30 minutes followed by incubation with 100 μl/well of TMB substrate solution (Zymed) for 15 minutes. The reaction was stopped with 100 μl/well of 1 N HCl and read at OD₄₅₀ on an ELISA plate reader."}},
  "data": [
    {"binder": "B1", "values": [
      {"measurement": "percentage neutralization, RG assay", "setting": "IFN-α K [1]", "result": 77.9, "unit": "%"},
      {"measurement": "percentage neutralization, RG assay", "setting": "IFN-α J1 [2]", "result": 83.9, "unit": "%"},
      {"measurement": "percentage neutralization, RG assay", "setting": "IFN-α F [3]", "result": 83.7, "unit": "%"},
      {"measurement": "percentage neutralization, RG assay", "setting": "IFN-β", "result": 9, "unit": "%"},
      {"measurement": "percentage neutralization, RG assay", "setting": "IFN-α WA [4]", "result": 86.9, "unit": "%"},
      {"measurement": "percentage neutralization, RG assay", "setting": "IFN-α D [5]", "result": 12.5, "unit": "%"},
      {"measurement": "percentage neutralization, RG assay", "setting": "IFN-α I [6]", "result": 87.1, "unit": "%"},
      {"measurement": "percentage neutralization, RG assay", "setting": "IFN-α G [7]", "result": 92.7, "unit": "%"},
      {"measurement": "percentage neutralization, RG assay", "setting": "IFN-α4a [8]", "result": 67.8, "unit": "%"},
      {"measurement": "percentage neutralization, RG assay", "setting": "IFN-α H2 [9]", "result": 77.5, "unit": "%"},
      {"measurement": "percentage neutralization, RG assay", "setting": "IFN-α C [10]", "result": 91.4, "unit": "%"},
      {"measurement": "EC50 of neutralization, RG bioassay", "setting": "IFN-α K [11]", "result": 0.235, "unit": "µg/mL"},
      {"measurement": "EC50 of neutralization, RG bioassay", "setting": "IFN-α J1 [12]", "result": 0.168, "unit": "µg/mL"},
      {"measurement": "EC50 of neutralization, RG bioassay", "setting": "IFN-α F [13]", "result": 0.146, "unit": "µg/mL"},
      {"measurement": "EC50 of neutralization, RG bioassay", "setting": "IFN-α WA [14]", "result": 0.0848, "unit": "µg/mL"},
      {"measurement": "EC50 of neutralization, RG bioassay", "setting": "IFN-α I [15]", "result": 0.0135, "unit": "µg/mL"},
      {"measurement": "EC50 of neutralization, RG bioassay", "setting": "IFN-α G [16]", "result": 0.0271, "unit": "µg/mL"},
      {"measurement": "EC50 of neutralization, RG bioassay", "setting": "IFN-α4a [17]", "result": 0.00211, "unit": "µg/mL"},
      {"measurement": "EC50 of neutralization, RG bioassay", "setting": "IFN-α H2 [18]", "result": 0.153, "unit": "µg/mL"},
      {"measurement": "EC50 of neutralization, RG bioassay", "setting": "IFN-α C [19]", "result": 0.00056, "unit": "µg/mL"},
      {"measurement": "percentage neutralization, CPE assay", "setting": "IFN-α K [20]", "result": 98.3, "unit": "%"},
      {"measurement": "percentage neutralization, CPE assay", "setting": "IFN-α J1 [21]", "result": 98.1, "unit": "%"},
      {"measurement": "percentage neutralization, CPE assay", "setting": "IFN-α F [22]", "result": 96.6, "unit": "%"},
      {"measurement": "percentage neutralization, CPE assay", "setting": "IFN-α WA [23]", "result": 88.7, "unit": "%"},
      {"measurement": "percentage neutralization, CPE assay", "setting": "IFN-α D [24]", "result": 33, "unit": "%"},
      {"measurement": "percentage neutralization, CPE assay", "setting": "IFN-α I [25]", "result": 98, "unit": "%"},
      {"measurement": "percentage neutralization, CPE assay", "setting": "IFN-α G [26]", "result": 99, "unit": "%"},
      {"measurement": "percentage neutralization, CPE assay", "setting": "IFN-α4a [27]", "result": 82.9, "unit": "%"},
      {"measurement": "percentage neutralization, CPE assay", "setting": "IFN-α H2 [28]", "result": 95.9, "unit": "%"},
      {"measurement": "percentage neutralization, CPE assay", "setting": "IFN-α C [29]", "result": 99.4, "unit": "%"},
      {"measurement": "neutralization of 600 pg leukocyte IFN, RG bioassay", "setting": "leukocyte IFN (Sigma)", "result": "> 50", "unit": "%"},
      {"measurement": "binding result", "setting": "IFN-α D [30]", "result": "no binding (tested: <2-fold over matched controls; 25 ng MAb)"}
    ]}
  ]
}
